Values quoted from earlier work, collected in PMC6600238.

Biological target: vitronectin (Homo sapiens) (UniProt P04004)
Sequence of UniProt P04004 (P04004 399-478): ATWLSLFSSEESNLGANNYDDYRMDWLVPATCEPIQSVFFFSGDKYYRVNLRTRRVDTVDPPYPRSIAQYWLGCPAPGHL

Kd: 4 µM
Substance: uPAR (from UniProt Q03405)
